Measurements as given in the nanobody polyreactivity screen of Harvey et al. (2022).

Assay: yeast display, Sf9 membrane polyspecificity reagent, FACS + sequencing; frameworks hold sequencing errors
Outline: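 Galactose-induced (36–48 hours) yeast carrying a synthetic nanobody display library were exposed to 10% biotinylated, detergent-solubilized Sf9 membrane reagent at 4 °C for 1 hour. FACS followed streptavidin microbead enrichment, using low and high (top ~1%) gates for expression (anti-HA) and reagent binding (streptavidin). Colony PCR, MiSeq 2 × 250 sequencing and CDR-length filtering followed. Labels for polyreactivity reflect the gate of origin.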

## QVQLVESGGGLVQAGGSLRLSCAASGSTFDYYAMGWYRQAPGKERELVAAISSSGSSTYYADSVKGLFTISRDNAKNTVYLQMNSLKPEDTAVYYCAKGTNYRDDYWGQGTQVTVSS
  polyreactivity (PSR sort gate): low polyreactivity

## QVQLVESGGGLVQAGGSLRLSCAASGLTFRRYTMGWYRQAPGKERECVAAIRTSGGSTSYADSVKGRFTISRDNAKNTVYLQMNSLKPEDTAVYYCAADYGGTSYVRGTVGRKYDYWGQGTQVTVSS
  polyreactivity (PSR sort gate): high polyreactivity

## QVQLVESGGGLVQAGGSLRLSCAASGSIFLRNAMGWYRQAPGKERALVAAISWGGRTYYADSVKGRFTISRDNAKNTVYLQMNSLKPEDTAVYYCAADGTWVRSPHFYYWGQGTQVTVSS
  polyreactivity (PSR sort gate): low polyreactivity

## QVQLVESGGGLVQAGGSLRLSCAASGSTFSNNVMGGYIQAPGKERELVAAISSRGGSTYYADSVKGRFTISRDNAKNTVYLQMNSLKPEDTAVYYCAADQWYAFILGYPMVYWGQGTQVTVSS
  polyreactivity (PSR sort gate): high polyreactivity

## QVKLVETGGGLVQAGGSLRLSCAASGRTFTPYTMGRYRQAPGKEREFVAAITFRGGSTYYADSVKGRFTISRDIAKNTVYLQMNSLKPEDTEVYFCNARGHGGWGTSMYYWGHGTQVTVSS
  polyreactivity (PSR sort gate): high polyreactivity

## QVQLVESGGGLVQAGGSLRLSCAASGSIFKPYAMGWYRQAPGKERELVAAISYSGGSTYYADSVKGRFTISRDNAKNSVYLQMNSLKPEDTAVYYCAKRSTSRGYDYWGQGTQVTVSS
  polyreactivity (PSR sort gate): high polyreactivity

## QVQLVETGGGLVQAGGSLRLSCAASGITFWYYAMGWYIQAPGKERELVAAITSGGSTYYADSVKGRFTISRDNAKNTVYLQMNSLKPEDTAVYYCAKDSVWGAKNLTSYKYYYWGQGTQVTVSS
  polyreactivity (PSR sort gate): low polyreactivity

## QVQLVESGGGLVQAGGSLRLSCAASGSTFLTNAIGWYRQATGKEREIVADITWSGGSTYYADSVKGRFTISRDNAKNTVYLQMNSLKPEDTAVYYCAVDAYSSVYLWGFVRFDYWGQGTQVTVSS
  polyreactivity (PSR sort gate): low polyreactivity

## QVQLVESGGGLVQAGGSLRLSCAASGLTFYVYGMGWYRQAPGKERELVASITSGGNTYYADSVKGRFTISRDNAKNTVYLQMNSLKPEDTAVYYCAVTAIALYYSSGYYWGQGTQVTVSS
  polyreactivity (PSR sort gate): low polyreactivity

## QVQLVESGGGLVQAGGSLRLSCAASGGIFRRYPMGWYRQATGKERELVAAISKRGGSTYYADSVKGRFTISRDNAKNTVYLQMNSLKPEDTAFYYCAKQRGGQPRSSTYYYWGQGTQVTVSS
  polyreactivity (PSR sort gate): high polyreactivity

## QVQLVESGGGLVQAGGSLRLSCAASGSTLSKNAMGWYRQAPGKERELVAAMTRRGGSTSYADSVKGRFTMSRDYAKNTVYLQMNSLKPEDTAVYYCNAVSKYDYGYWGQGTQVTVSS
  polyreactivity (PSR sort gate): high polyreactivity

## QVQLVESGGGLVQAGGSLRLSCAASGFTFAYYAMGWYRQAPGKERELVAAITVSGASTYYADSVKGRFTISRDNAKNTVYLQMNSLKPEDTAVYYCNASSVSFYYLEPSQPMDYWGQGTQVTVSS
  polyreactivity (PSR sort gate): high polyreactivity

## QVQLVESGGGLVQAGGSLRLSCAASGRIFLGNTMGCYRQAPGKERELVAAISKRGGSTYYVDSVKGRFTISRDNAKNTVYLQMNSLKPEDTAVYYCNAGPLYSGVYSGYYWGQGTQVTVSS
  polyreactivity (PSR sort gate): high polyreactivity

## QVQLQESGGGLVQAGGSLRLSCAASGSISNSAAKVWYRQAPGKERELVVSIGHGASSNYADSVKGRFTISRDNAKNTVYLQMNSLKPEDTAVYYCAAYPGFLDGFFYWGQSTQVTVSS
  polyreactivity (PSR sort gate): high polyreactivity

## QVQLVESGGGLVQAGGSLRLSCADSGRTFRYYAMGWYRQAPGKERELVAAITSGGSTYYADSVKGRFTISRDNAKNTVYLQMNSLKPEDTAVYYCAAARYEPFIYDYGYWGQGTQVTVSS
  polyreactivity (PSR sort gate): low polyreactivity

## QVQLVESGGGLVQAGGSLRLSCAASGSTFAEYAMGLYRQAPGKERELVAAISRRGGSTYYADSVKGRFTFSRDNAKYSVYLQMNSLKPEDTAVYYCATDGYTPYRWLWWLMDYWGQGTQVTVSS
  polyreactivity (PSR sort gate): high polyreactivity

## QVQLVESGGGLVQAGGSLRLSCAASLRTFAWYAMGWYRQAPGKERELVAAITNRGSGTYYADSVKGRFTISRDNAKNTVYLQMNSLKPEDTAVYYCAKDPITATTLDERVFYWGQGTQVTLSS
  polyreactivity (PSR sort gate): low polyreactivity

## QVQLVESGGGLVQAGGSLRLSCAASGYIFSSYAMGWYRQAPGKERELVAAISWTGGTYYADSVKGRFTISRDNAKNTVYLQMNSLKPEDTAVYYCAVRYKRKGSGYRTNAYDYWGQGTQVTVSS
  polyreactivity (PSR sort gate): high polyreactivity

## QVQLVESGGGLVQAGGRLRISCAASVRIFGVNAMGWYRQAPGKERELVAVISSGGSTYYADSVKGRFTISRDNAKNTVYLQMNSLNPEDTAVYSCYAVVGRWFPYNLSDYWGQGTQVTVSS
  polyreactivity (PSR sort gate): low polyreactivity

## QVQLVESVGGLVQAGGSLRLSCAASGSTIRYYAIAWYRQAPGKERELVAAITSSGGRTYYADSVKGRFTISRDYAKNTVYLQMNSLKPEDTAVYYCAAYAYYHTGDDYWGQGTQVTVSS
  polyreactivity (PSR sort gate): high polyreactivity

## QVQLVESGGGLVQAGCSLRLSCAASGFIFLTNGMGWYRQAPGTERELVAVITSSTGSTSYADSVKGRFTISRDIAKNTVYLQMNSLKPEDTAVYYCDDSTGVSWYYPSGSLDYWGQGTQVNVSS
  polyreactivity (PSR sort gate): low polyreactivity

## QVQLVESGGGLVQAGGSLRLSCAASGRIYSYYAMGWYRQAPGKERELVATINSGGSTNYADSVNGRFTISRDNAKNTVYLQMKSLKPEDTAVYYCGALRDRDITVYYDTGRMYYWGQGTQVNVSS
  polyreactivity (PSR sort gate): low polyreactivity

## QVQLVESGGGLVQAGGSLRLSCAASGYTFYYYAMGWYRQAPGKEREFVAAISWRGGRTYYADSVKGRFTISRDNAKNTVYLQMNSLKPEDTAVYYCAARRDGWTFWKYDYWGQGTQVTVSS
  polyreactivity (PSR sort gate): high polyreactivity

## QVQLQEIGGGLVQAGGSLRLSCAATGSIFVSVTMGWYRQAPGKERELVASIGRGSTTNHADSVKGRFTISRDNAKNIVYLLMNSLKPEDTAVYYCAALESYGKYHGYWGQGTQVTVSS
  polyreactivity (PSR sort gate): low polyreactivity

## QVQLVESGGGLVQAGGSLRLSCAASGSTFYAYAMGWYRHAPGKERELVAAIDSGGSTYYADSVKGRFTISRDNAKNTVYFQMNSLKPEDTAVYYCAVRHRYTRAYWGRDYWGQGTQVTVSS
  polyreactivity (PSR sort gate): low polyreactivity

## QVQHVESGGGLVQAGGSLRLSCPASGLTVGGYAMGWYRQAPGKERELVAAISLSGGRTYYADSVKGRFTISRDIPMITVYLLMNSLKPEVSAVYYCAASILVVYLREDYWGQGTQVTVSS
  polyreactivity (PSR sort gate): high polyreactivity

## QVQLVESGGGLVQAGGSLRLSCAASGRIFYPNDLGWYRQAPGKERELVAAITRDGSTNYADSVKGRFTISRDNAKNTVYLQMNSLKPEDTAVYYCAADISDWYIIRRMNYWGQGTQVTVSS
  polyreactivity (PSR sort gate): low polyreactivity

## QVQLVESGGGLVQAGGSLRLSCAASGSNFYGYTMGWYRQAPGKERELVAAISWSGGSTYYADSVKGRFTISRDNAKNTVYLQMNSLKPEDTAVYYCAARWGYSRRGYRGYDYWGQGTQVTVSS
  polyreactivity (PSR sort gate): high polyreactivity

## QVQLVESGGGLVQAGGSLRLSCAASGSIFLDYAMGWYRQAPGKERELVAANTSDGSTYYADSVKGRFTISRDKAKNTVYLQMNSLKPEDTAVYYCAVQDTSYDVQYSYGYWGQGTHVTVSS
  polyreactivity (PSR sort gate): low polyreactivity

## QVQLVESGGGLVQAGGSLRLSCAASGNIFYRYAMGWYRQAPGKERELVAAISGNSGNTYYADSVKGRFTISRDNAKNTVYLQMNSLKPEDTAVYYCAVRRKSFRQTSYNYWGQGTQVTVSS
  polyreactivity (PSR sort gate): high polyreactivity

## QVQLVESGGGLVQAGGSLRLSCAASGYTFYPYAMGWYRQAPGKERELVAAISYSGGRTYYADSVKGRFTISRDNAKNTVYLQMNSLKPEDTAVYYCAADSGRYRMYYWGQGTQVTVSS
  polyreactivity (PSR sort gate): high polyreactivity

## QVQLVESGGGLVQAGGSLRLSCAASGSTFRFYAMGWYRQAPGKERELVAGITGSGDSTYYADSVKGRFTISRDNAKNTVYLQMNSLKPEDTAVYYCNKRFLFAGFDYLGQGTQVTVSS
  polyreactivity (PSR sort gate): low polyreactivity

## QVQLVESGGGLVQAGGSLRLSCAASVRIFRGNDMGWYRKAPGKERELVARITGNDGDTYYADSVKGRFTISRDNAKNTVYLQMNSLKPEDTAVYYCATDTSSYRRRYYYWGQGTQVTVSS
  polyreactivity (PSR sort gate): low polyreactivity

## QVQLVESGGGLVQAGGSLRVSCAASGSTFYYNAMGWYRQATGKERELVAAITRSAGSTYYADSVKGRFTISRDNAKNTVYLQMNSLKPEDTAVYYCNARYSFYGSYWTSGKYDYWGQGTQVTVSS
  polyreactivity (PSR sort gate): high polyreactivity

## QVQLVESGGGLVQAGGSLRLSCAASGRTFQDYAMGWYRQAPGKERELVAVINSGGSTYYADSVKGRFTISRDNAKNTVYLQMNSLKPEDTAVYYCAKGYWFYPWYHGYYWGQGTQVTVSS
  polyreactivity (PSR sort gate): high polyreactivity

## QVQLVESGGGLVQAGGSLRISCAASGSTFQGYAMGWYREAPGKERELVAAISGRSGSTYYADSVKGRFTISRDNAKNTVFLTMNSLKPVDSAVYYCNARFNRSRRTYDYWVQGTQVTVSS
  polyreactivity (PSR sort gate): high polyreactivity

## QVQLVESGGGLVQAGGSLRLSCAASGSIFPFYAMGWYRQAPGKERELVAVISTRGGSTYYADSVKGRFTISRDYAKNTVYFQMKSLKPEDTAVYYCAAKSVYRMGYWGQGTQVTVSS
  polyreactivity (PSR sort gate): high polyreactivity

## QVQLVESGGGLVQAGGSLRLSCAASGFTFRINAMGWYRQAPGKERELVAAISWSGGSTYYADSVKGRFTISRDNAKNTVYLQMNSLKPEDTAVYYCNKVQSSRYRSQRTFQYGYWGQGTQVTVSS
  polyreactivity (PSR sort gate): high polyreactivity

## QVQLVESGGGLVQAGGSLRLSCAASGFTFSAYTMGWYRQAPGKERELVAAINWSGANTYYADSVKGRFTISRDNAKNTVYLQMNSLKPEDTAVYYCNAEDDYTYDLSFGGYKYDYWGQGTQVTVSS
  polyreactivity (PSR sort gate): low polyreactivity

## QVQLVESGGGLVQAGGSLRLSCAASGRRFRWYVMGWYRQAPGKERELVARISSNVGSTYYADSVKGRFTISRDNAKNTVYLQMNSLKPEDTAVYYCAAGPPKYYYSNRYYWGQGTQVTVSS
  polyreactivity (PSR sort gate): high polyreactivity

## QVHLVESGGGLVQAGGSLRLSCAASGITFRSYAMGWYRQAPGKERELVAAISTSGGRTYYADSVKGRFTISRDNAKNTVYLQMNSLKPEDTAVYYCNKVGGVYGYYAYGLGYWGQGTQVTVSS
  polyreactivity (PSR sort gate): high polyreactivity

## QVQLVESGGGLVQAGGSLRLSCAASGRTFWYYAMGWYRQAPGKERELVAAITWSGSDTYYADSVKGRFTISRDNAKNTVYLLMNSLKPEDTAVYYCAAEYSYESSGYDYWGQGTQVTVSS
  polyreactivity (PSR sort gate): high polyreactivity

## QVQLVESGGGLVQAGGSLRLSCAASKESINAMGWYRQAPGKERELVAAIGWSGSSTYYADSVKGRFTISRDNAKNTVYLQMNSLKPEDTAVYYCAADTTTGDRGFDYWGQGTQVTVSS
  polyreactivity (PSR sort gate): high polyreactivity
